Results published in article PMC9758056, “Structural basis for Parkinson’s disease-linked LRRK2’s binding to microtubules” (Nature Structural & Molecular Biology, 2022).

B1: LRRK2^RCKW-S2345D (domain or fragment, human)
chain: KKAVPYNRMKLMIVGNTGSGKTTLLQQLMKTKKSDLGMQSATVGIDVKDWPIQIRDKRKRDLVLNVWDFAGREEFYSTHPHFMTQRALYLAVYDLSKGQAEVDAMKPWLFNIKARASSSPVILVGTHLDVSDEKQRKACMSKITKELLNKRGFPAIRDYHFVNATEESDALAKLRKTIINESLNFKIRDQLVVGQLIPDCYVELEKIILSERKNVPIEFPVIDRKRLLQLVRENQLQLDENELPHAVHFLNESGVLLHFQDPALQLSDLYFVEPKWLCKIMAQILTVKVEGCPKHPKGIISRRDVEKFLSKKRKFPKNYMSQYFKLLEKFQIALPIGEEYLLVPSSLSDHRPVIELPHCENSEIIIRLYEMPYFPMGFWSRLINRLLEISPYMLSGRERALRPNRMYWRQGIYLNWSPEAYCLVGSEVLDNHPESFLKITVPSCRKGCILLGQVVDHIDSLMEEWFPGLLEIDICGEGETLLKKWALYSFNDGEEHQKILLDDLMKKAEEGDLLVNPDQPRLTIPISQIAPDLILADLPRNIMLNNDELEFEQAPEFLLGDGSFGSVYRAAYEGEEVAVKIFNKHTSLRLLRQELVVLCHLHHPSLISLLAAGIRPRMLVMELASKGSLDRLLQQDKASLTRTLQHRIALHVADGLRYLHSAMIIYRDLKPHNVLLFTLYPNAAIIAKIADYGIAQYCCRMGIKTSEGTPGFRAPEVARGNVIYNQQADVYSFGLLLYDILTTGGRIVEGLKFPNEFDELEIQGKLPDPVKEYGCAPWPMVEKLIKQCLKENPQERPTSAQVFDILNSAELVCLTRRILLPKNVIVECMVATHHNSRNASIWLGCGHTDRGQLSFLDLNTEGYTSEEVADSRILCLALVHLPVEKESWIVSGTQSGTLLVINTEDGKKRHTLEKMTDSVTCLYCNSFSKQSKQKNFLLVGTADGKLAIFEDKTVKLKGAAPLKILNIGNVSTPLMCLSESTNSTERNVMWGGCGTKIFSFSNDFTIQKLIETRTSQLFDYAAFSDSNIITVVVDTALYIAKQNSPVVEVWDKKTEKLCGLIDCVHFLREVMVKENKESKHKMSYSGRVKTLCLQKNTALWIGTGGGHILLLDLSTRRLIRVIYNFCNSVRVMMTAQLGSLKNVMLVLGYNRKNTEGTQKQKEIQSCLTVWDINLPHEVQNLEKHIEVRKELAEKMRRTSVE
notes: LRRK2, human, carboxy-terminal catalytic half with the ROC, COR, kinase and WD40 domains; also called p.S2345D; WD40 dimerization interface mutant; source: Sf9 insect cells, baculovirus, purified (Ni-NTA, SP Sepharose, TEV cleavage, second Ni-NTA, S200 gel filtration); not shown: His6-Z, N-terminal, cleaved
B2: LRRK2^RCKW-G2019S (domain or fragment, human)
chain: KKAVPYNRMKLMIVGNTGSGKTTLLQQLMKTKKSDLGMQSATVGIDVKDWPIQIRDKRKRDLVLNVWDFAGREEFYSTHPHFMTQRALYLAVYDLSKGQAEVDAMKPWLFNIKARASSSPVILVGTHLDVSDEKQRKACMSKITKELLNKRGFPAIRDYHFVNATEESDALAKLRKTIINESLNFKIRDQLVVGQLIPDCYVELEKIILSERKNVPIEFPVIDRKRLLQLVRENQLQLDENELPHAVHFLNESGVLLHFQDPALQLSDLYFVEPKWLCKIMAQILTVKVEGCPKHPKGIISRRDVEKFLSKKRKFPKNYMSQYFKLLEKFQIALPIGEEYLLVPSSLSDHRPVIELPHCENSEIIIRLYEMPYFPMGFWSRLINRLLEISPYMLSGRERALRPNRMYWRQGIYLNWSPEAYCLVGSEVLDNHPESFLKITVPSCRKGCILLGQVVDHIDSLMEEWFPGLLEIDICGEGETLLKKWALYSFNDGEEHQKILLDDLMKKAEEGDLLVNPDQPRLTIPISQIAPDLILADLPRNIMLNNDELEFEQAPEFLLGDGSFGSVYRAAYEGEEVAVKIFNKHTSLRLLRQELVVLCHLHHPSLISLLAAGIRPRMLVMELASKGSLDRLLQQDKASLTRTLQHRIALHVADGLRYLHSAMIIYRDLKPHNVLLFTLYPNAAIIAKIADYSIAQYCCRMGIKTSEGTPGFRAPEVARGNVIYNQQADVYSFGLLLYDILTTGGRIVEGLKFPNEFDELEIQGKLPDPVKEYGCAPWPMVEKLIKQCLKENPQERPTSAQVFDILNSAELVCLTRRILLPKNVIVECMVATHHNSRNASIWLGCGHTDRGQLSFLDLNTEGYTSEEVADSRILCLALVHLPVEKESWIVSGTQSGTLLVINTEDGKKRHTLEKMTDSVTCLYCNSFSKQSKQKNFLLVGTADGKLAIFEDKTVKLKGAAPLKILNIGNVSTPLMCLSESTNSTERNVMWGGCGTKIFSFSNDFTIQKLIETRTSQLFSYAAFSDSNIITVVVDTALYIAKQNSPVVEVWDKKTEKLCGLIDCVHFLREVMVKENKESKHKMSYSGRVKTLCLQKNTALWIGTGGGHILLLDLSTRRLIRVIYNFCNSVRVMMTAQLGSLKNVMLVLGYNRKNTEGTQKQKEIQSCLTVWDINLPHEVQNLEKHIEVRKELAEKMRRTSVE
notes: LRRK2, human, carboxy-terminal catalytic half with the ROC, COR, kinase and WD40 domains, with the PD-linked mutation p.G2019S; also called LRRK2^RCKW carrying p.G2019S; source: Sf9 insect cells, baculovirus, purified (Ni-NTA, SP Sepharose, TEV cleavage, second Ni-NTA, S200 gel filtration); not shown: His6-Z, N-terminal, cleaved

Target: the molecule itself
Assay: cryo-EM imaging with calculated diffraction patterns (layer lines); tubulin or microtubules with LRRK2^RCKW (WT or mutant), with or without MLi-2; layer lines in diffraction patterns calculated from images of single filaments, 2D class averages

Protein | binding result
B1 | binds
B2 | binds
